pKd: −log10 of the molar value.
Assays:
Experiment in all cases: IEDB peptide-MHC binding, purified MHC/competitive/radioactivity; filed as Kd, often an IC50 or EC50 that approximates it; ≥ and ≤ were set here for values at or beyond the usual limits of such assays
HLA-A*02:02 = target: HLA-A*02:02
HLA-A*02:03 = target: HLA-A*02:03
HLA-A*02:06 = target: HLA-A*02:06
HLA-A*03:01 = target: HLA-A*03:01
HLA-A*11:01 = target: HLA-A*11:01
HLA-A*31:01 = target: HLA-A*31:01
HLA-A*33:01 = target: HLA-A*33:01
HLA-A*68:01 = target: HLA-A*68:01
[1] = source organism: Vaccinia virus WR
[2] = source organism: Mammarenavirus guanaritoense
[3] = source organism: Lassa virus Josiah
[4] = source organism: Lymphocytic choriomeningitis virus (strain Armstrong)
[5] = source organism: SARS coronavirus Tor2
[6] = source organism: Mammarenavirus machupoense
[7] = source organism: Mammarenavirus whitewaterense

SIKMIYDLNA
pKd (HLA-A*02:02; [1]): 6.07 | pKd (HLA-A*02:03; [1]): 6.59 | pKd (HLA-A*02:06; [1]): 5.99

SLVKESMASL
pKd (HLA-A*02:02; [1]): 6.00 | pKd (HLA-A*02:03; [1]): 8.11 | pKd (HLA-A*02:06; [1]): 5.84

SMASLKSLY
pKd (HLA-A*03:01; [1]): 8.92 | pKd (HLA-A*11:01; [1]): 7.42 | pKd (HLA-A*31:01; [1]): 6.16 | pKd (HLA-A*33:01; [1]): 4.79 | pKd (HLA-A*68:01; [1]): 7.58

SMYGKAFNHA
pKd (HLA-A*02:02; [1]): 8.18 | pKd (HLA-A*02:03; [1]): 9.03 | pKd (HLA-A*02:06; [1]): 8.39

SSVQLSNNK
pKd (HLA-A*03:01; [1]): 5.66 | pKd (HLA-A*11:01; [1]): 8.28 | pKd (HLA-A*31:01; [1]): 5.34 | pKd (HLA-A*33:01; [1]): ≤ 4.11 | pKd (HLA-A*68:01; [1]): 7.70

STFNMWREI
pKd (HLA-A*02:02; [1]): 5.24 | pKd (HLA-A*02:03; [1]): 6.15 | pKd (HLA-A*02:06; [1]): 7.02

STYPGNTFV
pKd (HLA-A*02:02; [1]): 7.97 | pKd (HLA-A*02:03; [1]): 9.72 | pKd (HLA-A*02:06; [1]): 9.33

SVDFVVNGHT
pKd (HLA-A*02:02; [1]): ≤ 4.15 | pKd (HLA-A*02:03; [1]): ≤ 4.15 | pKd (HLA-A*02:06; [1]): ≤ 4.16

SVQLSNNKY
pKd (HLA-A*03:01; [1]): 5.57 | pKd (HLA-A*11:01; [1]): 7.48 | pKd (HLA-A*31:01; [1]): 4.76 | pKd (HLA-A*33:01; [1]): 4.87 | pKd (HLA-A*68:01; [1]): 5.90

SYSKMSVVMR
pKd (HLA-A*03:01; [2]): 5.00 | pKd (HLA-A*11:01; [2]): ≤ 4.66 | pKd (HLA-A*31:01; [2]): 8.24 | pKd (HLA-A*33:01; [2]): 7.25 | pKd (HLA-A*68:01; [2]): 6.88

TCQGSDDIRK
pKd (HLA-A*03:01; [3]): ≤ 4.15 | pKd (HLA-A*11:01; [3]): 5.15 | pKd (HLA-A*31:01; [3]): ≤ 4.30 | pKd (HLA-A*33:01; [3]): ≤ 4.15 | pKd (HLA-A*68:01; [3]): 5.24

TIFDIVSKCI
pKd (HLA-A*02:02; [1]): 6.70 | pKd (HLA-A*02:03; [1]): 7.03 | pKd (HLA-A*02:06; [1]): 6.15

TILATLNTLI
pKd (HLA-A*02:02; [1]): 7.40 | pKd (HLA-A*02:03; [1]): 7.53 | pKd (HLA-A*02:06; [1]): 6.47

TISGNIYSAL
pKd (HLA-A*02:02; [1]): 8.03 | pKd (HLA-A*02:03; [1]): 7.05 | pKd (HLA-A*02:06; [1]): 5.57

TLALSLTFI
pKd (HLA-A*02:03; source organism: Dengue virus 4 Philippines/H241/1956): 8.98

TLGNFSWFPH
pKd (HLA-A*03:01; [4]): 5.67 | pKd (HLA-A*11:01; [4]): 5.86 | pKd (HLA-A*31:01; [4]): 6.24 | pKd (HLA-A*33:01; [4]): 4.90 | pKd (HLA-A*68:01; [4]): 5.05

TLGVYDYLV
pKd (HLA-A*02:02; [5]): 9.61 | pKd (HLA-A*02:03; [5]): 6.03 | pKd (HLA-A*02:06; [5]): 7.13

TLVVISVIFY
pKd (HLA-A*03:01; [1]): 5.46 | pKd (HLA-A*11:01; [1]): 5.86 | pKd (HLA-A*31:01; [1]): 4.90 | pKd (HLA-A*33:01; [1]): ≤ 4.15 | pKd (HLA-A*68:01; [1]): 5.06

TLYICDKQSH
pKd (HLA-A*03:01; [4]): 4.82 | pKd (HLA-A*11:01; [4]): ≤ 4.32 | pKd (HLA-A*31:01; [4]): ≤ 4.46 | pKd (HLA-A*33:01; [4]): ≤ 4.15 | pKd (HLA-A*68:01; [4]): ≤ 4.15

TMLRNSELCH
pKd (HLA-A*03:01; [6]): 4.99 | pKd (HLA-A*11:01; [6]): ≤ 4.16 | pKd (HLA-A*31:01; [6]): 5.05 | pKd (HLA-A*33:01; [6]): ≤ 4.15 | pKd (HLA-A*68:01; [6]): ≤ 4.15

TRFWYINHTK
pKd (HLA-A*03:01; [2]): 5.72 | pKd (HLA-A*11:01; [2]): 5.85 | pKd (HLA-A*31:01; [2]): 7.05 | pKd (HLA-A*33:01; [2]): ≤ 4.15 | pKd (HLA-A*68:01; [2]): 7.03

TTDDLVKSY
pKd (HLA-A*03:01; [1]): ≤ 4.28 | pKd (HLA-A*11:01; [1]): 6.13 | pKd (HLA-A*31:01; [1]): 5.33 | pKd (HLA-A*33:01; [1]): 4.74 | pKd (HLA-A*68:01; [1]): 4.92

TTTIKPVSYK
pKd (HLA-A*03:01; [5]): 7.94 | pKd (HLA-A*11:01; [5]): 7.69 | pKd (HLA-A*31:01; [5]): 5.84 | pKd (HLA-A*33:01; [5]): 4.97 | pKd (HLA-A*68:01; [5]): 7.00

TVLPHLCLDY
pKd (HLA-A*03:01; [1]): 8.39 | pKd (HLA-A*11:01; [1]): 8.52 | pKd (HLA-A*31:01; [1]): 6.22 | pKd (HLA-A*33:01; [1]): 5.22 | pKd (HLA-A*68:01; [1]): 6.15

VADLSARNKL
pKd (HLA-A*02:02; [1]): 5.93 | pKd (HLA-A*02:03; [1]): 5.67 | pKd (HLA-A*02:06; [1]): ≤ 4.45

VCFWSTLFY
pKd (HLA-A*03:01; [7]): 6.86 | pKd (HLA-A*11:01; [7]): 6.03 | pKd (HLA-A*31:01; [7]): ≤ 4.11 | pKd (HLA-A*33:01; [7]): ≤ 4.11 | pKd (HLA-A*68:01; [7]): ≤ 4.41

VLAWLYAAV
pKd (HLA-A*02:02; [5]): 10.01 | pKd (HLA-A*02:03; [5]): 9.51 | pKd (HLA-A*02:06; [5]): 8.06

VLHDIGNPK
pKd (HLA-A*03:01; [5]): 7.67 | pKd (HLA-A*11:01; [5]): 7.46 | pKd (HLA-A*31:01; [5]): 5.71 | pKd (HLA-A*33:01; [5]): 5.11 | pKd (HLA-A*68:01; [5]): 5.19

VTIKYSNDNR
pKd (HLA-A*03:01; [1]): 4.99 | pKd (HLA-A*11:01; [1]): 7.27 | pKd (HLA-A*31:01; [1]): 6.40 | pKd (HLA-A*33:01; [1]): 5.17 | pKd (HLA-A*68:01; [1]): 8.63

WFSQRGGSYK
pKd (HLA-A*03:01; [5]): 6.72 | pKd (HLA-A*11:01; [5]): 6.82 | pKd (HLA-A*31:01; [5]): 6.75 | pKd (HLA-A*33:01; [5]): 6.94 | pKd (HLA-A*68:01; [5]): 6.85

WIKDIMTST
pKd (HLA-A*02:02; [1]): 6.71 | pKd (HLA-A*02:03; [1]): 7.94 | pKd (HLA-A*02:06; [1]): 6.87

WIKNLETYT
pKd (HLA-A*02:02; [1]): 4.74 | pKd (HLA-A*02:03; [1]): 6.20 | pKd (HLA-A*02:06; [1]): 5.09

YASLTTIGT
pKd (HLA-A*02:02; [1]): 6.39 | pKd (HLA-A*02:03; [1]): 6.84 | pKd (HLA-A*02:06; [1]): 6.79

YLGVNNLPY
pKd (HLA-A*03:01; [1]): 5.89 | pKd (HLA-A*11:01; [1]): 5.83 | pKd (HLA-A*31:01; [1]): ≤ 4.11 | pKd (HLA-A*33:01; [1]): ≤ 4.11 | pKd (HLA-A*68:01; [1]): ≤ 4.28

YLRGHTESI
pKd (HLA-A*02:02; [1]): 9.69 | pKd (HLA-A*02:03; [1]): 9.75 | pKd (HLA-A*02:06; [1]): 7.04

YLSSVLLAL
pKd (HLA-A*02:02; [5]): 9.84 | pKd (HLA-A*02:03; [5]): 9.51 | pKd (HLA-A*02:06; [5]): 8.09

YTLIYRQLT
pKd (HLA-A*02:02; [1]): 5.19 | pKd (HLA-A*02:03; [1]): 5.03 | pKd (HLA-A*02:06; [1]): 4.75

YVIRHVDGKI
pKd (HLA-A*02:02; [1]): 6.21 | pKd (HLA-A*02:03; [1]): 6.94 | pKd (HLA-A*02:06; [1]): 6.28

YVPSAEDNY
pKd (HLA-A*03:01; [1]): ≤ 4.11 | pKd (HLA-A*11:01; [1]): ≤ 4.11 | pKd (HLA-A*31:01; [1]): ≤ 4.11 | pKd (HLA-A*33:01; [1]): ≤ 4.11 | pKd (HLA-A*68:01; [1]): ≤ 4.44

Source: the Immune Epitope Database (IEDB)
